This data set in a line: label from the status in PepcDB records.
As to “MKQRVITAVIALILFIPIVLAGGLWMDWLTVLFAAVGISEIFLMKKQILVSFDFLLALLATLTWTVPDSFFKVFPSNITKLGVFYGIIMLFLTWTVLSKNKTTFDDVGVYILAALYIGIGFHYMAAIRAYPQNGLALLGYVFVVVWSTDIGAYMIGRKIGKHKLWPVISPNKTWEGSIGAVICALICSAIYLAILSSFNITFGVSELSMVVLAFFLSIVGQMGDLVESAYKRFYGVKDSGKILPGHGGILDRFDSMLFVLPVVAAILGIVH”, the protein production entry is “failed”.

As for “MKQVPDVNKIKFDPETKRIVRKDVPLMMNSFDKKAVEEAIRISERHGWETCVATMGPPQAVEVINEALRMGIERGYLITDPSLANSDTLITSRVLAAFALRYGPDLVLMGKYSLDGETSQVPAEVSALMGWPYVPSVSKIMISDHLELEQELENGIYTCSAPLPCVLSLSEKINRARAIKPDTPQMYDRIVQIDTKWLGLDLDGGRDSPTAVIGTEQVNSNRSPVFIDPGADMYRQIMEIIRVSR”, the protein production result was “failed”.

On to “MKQVVLNLKDGDLTVEEVPIPTIKGSGVLVRNHYSVISAGTESGVVDLADKSLIGKARARPDLAMKVINKAKQDGPISAFQQAMGRLEKREPLGYSSAGTVISVSEDIKDIKPGDRVACAGAGYANHADVVFVPRNLCAKVPENVDFKNACFTTVGSIAMQGVRNADVKIGENIVVIGLGLIGLITLQILKASGCRVFGVDLDESKVNLARELGADLSYSRNSPNLEERIKQFSRGIGADSTIITAATRSNDPVDFAGKITRERGKVVIVGLVGMDIPREEYYNKELEMRISRSYGPGRYDRNYEEYGQDYPAPYVRWTENRNMQAFLDLISMKKISMEPIITHEYEIEQAPEAYNIIKERKPYLGLVLKYDTDKRIEDKVILKSPGPVSAISESFSPVLGVIGAGIFATSILLPNLSKIKGVKLKGLSAASGLSCESVAKKYGFEYCTSDYHKILSDPEINCVSIVTRNSLHASLVIEALKNKKNVLVEKPLALNEEELNAIIEAKKENGGFIMVGFNRRYSELGVKLKDFFKNRSQSMVAYYRVNAESIPKDHWVYDESEGGSRIITECCHFIDFMQFIIGSSPVEVYARKIESQVKTPEDNENVSITIAFEDGSIGTLIYTTHGDSSVSKEHAEFFADGMVGAITDFKQLKLVKDGKCTQINKRLITEKGHKNELENFFKMVKQGPSKYSFEENVLTTVSTLKAAEHVMSGGPVKLI”, for which the protein production entry is “failed”.

For “MKRATLPRGRVAGLTAGSLAAVGLALALTLGGVSVVPSGFDGIEDLPLPGGADLGDHPYTVTAELQDVLSLVPHSAVRVNDVAVGRITGIELGEDDWSARVTMEINGEVRLPADATARLEQSSLLGEKYVQLVAPAKETGTGRLTDGSVIPLARTSRNTEVEEVFGALSLLLNGGGVNQLKTITRELNAALGGREPEVRSMLKRVNTLVGDLDDHRGDITDALDAVNRLSSTLATRKDDVGTVLTDLSPGLKTLERQRGSLLTMLRSLDTLSGVAVSTINASKDDMIADLKAVAPTLRALADAGTDLPDSLQVLLTYPFTDEVLRGVKGDYLNTYLSMVAVPGTEVIPPLVDGDTPGPTASATAQDGPDPAAKNPAAKNPISRKRSSGQRGSASPLPLPSVSGAGPASGGEHGLEHHHHHH”, the protein production entry is given as “not failed”.

With “MKRCRRRTQAGIRINLCVQGREGLSSPTPIGPIVTSTQPDSRASSLTDDALQWTRLEVAFTAGIVGCLLFATWQLGDLLARDWLAGWVGESELREDLVYYGVAFTAALAALGGTTRSLAHAGRFRRTVGRSLLWYGALLLISASGMGAIEYLPEVAAGLFGAGVLIAAVYVLQQRYFTRERIRRRRLRNDNCPQCGSDLRPEAHHCSQCGRRMGEDCPECGGYLGRSDRYCADCGRERAEGAP”, the protein production result is “failed”.

On to “MKREGNMTLLVRNFIVSIALAISDFFSFVISLYLAIGVLSITISDYETVISVNQLEGWKALHWLLGLCCIAWYSMRLRHYFYRKTFWFELKEILRTLVIFAIIEIAVMAFASWSFSRYLWVLTWFFVLLLVPLARMVTKRVLDVFGLWHRDTWIIGSGANAQEAYKAINSERNLGLVIVGFIAVTGERSENKDINGVPVLAHDPDWLSSMDKKTQFIVAVESHQSEVRNAWLRNFMIKGYRYISVIPTLRGMPLDSTDMSFIFSHEVMIFRVQQNLAKWSSRILKRAFDIVGSLAIIIILSPALIYISRKVKRDGGPSIYGHERIGKGGKSFKCLKFRSMVINSKEVLEKLLDSDSEAKKEWDATFKLKNDPRITKIGAFLRRTSLDELPQLFNVLKGEMSLVGPRPIITAELIRYNDEVDYYLLSKPGMTGLWQVSGRSDVDYETRVYLDAWYVKNWSMWNDIAILFKTISVVLKKDGAY”, for which the protein production entry is recorded as “failed”.

Consider “MKRENIKTILLTVLVVISLVFTWGIWTFQPNFSEGSSSTESTVRVKHKIEKTTQKLSETVRPRDMFIHDDGAHYKVDDNALYEEIWSDLPHWDVKGIKDISDQYDKAGFKSWFYGIGGSEAKLDLQFSDTIPIDIFQTLFKWSNQSFEYSSFDHILIPFNETKANKKIYLVSYSKQLILEVTVESANYRNIMNDLKNRQSNMPAFSLFSIGSKKEFLLPNKPLTMDKKEFVTESIKTNTFKQALFSDPSIVREDSNYNNRNVLTDGISRLDVNLSQRQVQFQQRNLVQSTSYQTGELIKKSQKYLEDTGSWTDHYQFFNINDSQQLSFYIFMDQIPVINSTAKPFGATSAITVQWANDDILSYKRPNYSLGTNPIKTSETELMGGSEVKMLLSKQTAYDTDKIDQIFLAYQLVSTSTNDDPLVELEPVWAMKVNGKIVPITKDLLRKEGANSGVE”, for which the protein production entry is recorded as “failed”.

As to “MKRFILLSFVVLALGFYELSGGPDFDPEVARASIIDARQERELARKAALPGPVYVAAAPSAEPEVEDSVTRANLNLVSFASVVAEPEISTVTAPVAVARADTPETAPEITVKRLAAAQDEPLSLAALSPAQEPSRNVFAGSSIVASSSDINGEKNLRSVKGTRVNMRSGPGTQYDVVAQLTQSEEVEVLTDTGNGWVELRPLEGGPTGWVAEFLLTGG”, the protein production result was “failed”.

“MKRFINRRQELDFLEKQYREQNSSLVIIYGRRRIGKTALIKKFIEDKPAIYFLASEEAESQNIEYYKKAVGNFLKNPLIERLSGVGWDDIFDVIINAKINKKTVIVFDEFQNLCKTNPAFASIVQRIWDEKLKNHNFMLILSGSLVGMMQEHALSYSSPLYGRRTGQIKLKQFSFKEAKEFFPEASDDQFIWIYSIVGGVPKYLEMFKFEGDIYKAIEENILSRQSFLYEEPLFLLEKEVHEVGSYFSIIKSIALGNHKLSQIAQSLSTAQTKLTKYLNTLIDLDIVRREVPVTEEYPEKSKRGLYFINDNFIDFWFKFVYPYREQLELDNTEYVIENIKSKIVTNHISFIYEEVCRQILMDLIKTKEIDIQLDRIGKWWDSKSEIDIVGISKNTGHVVFGECKYSQRVVDIDVFFNLKKKAENIKVFPEQKELYILFSRTGFSERLLEFAKETENLILIKFP”: the protein production result is “failed”.

For the sequence “MKRFPFRPRLLVTVSLVALLLPGCASKPNNLKPSMPEPRLGVASENPGKPKKGKQASSGSQYDTLWERMFSLYALPQVEHRSVEREVSWFINHPDYLKRAQKRAEPFLYTIVRQLEKQKMPGELALLPIVESAFQPHAVSPARAAGIWQFIPETGRRYGLKRSRSYDGRRDVYASTRAAIKYLKKLHNDFNGDWLLAIAAYNCGEGAVAKAIQRNEARNLPTDFWSLDLPDETKAYVPRLLAVSKVFANADKYAIDLHYIPNEAIFKPVKVSSQLDLALAADAADMSLERMLELNPGFKHPHADIEGSYRLFVPADKSRKFKKELARLAMSGQFDSHPPADEGDGSTGFGHRGSLETATEDDAAPGRERSVRKPVVSGYGAEYAVPSRSAERGGPAKDSSRSERWQSVETPSRGGSAVVAHLRDGSRLRDVWGREHGQEDKPLKGNRRPDERLGLSSKANPNRKEGGRKVAGGSALSREEALREERGDRGKEKHAISIPFDERHGGGIKASQSIRHTVKPGETLFAISQRFGVSVADLRKWNGVKENKLEAGRNIRVSAGKD”, the protein production result is “failed”.

On to “MKRGLRKERNKEDEAGKIVNEGKAHLFYKVIILMVFYISYGIYLYWRFAYTIPRGYGDIALIAGYVLFIAETIGFLESSMFYLTLWDTNTPSTPEVQDKEFPHVDIFIASYNEPRNLLYKTLIGCKNMDYPDKSKVHIYICDDGNRKDIKELCESLKVGYITREDNTHAKAGNLNNALKQTSSPYVVTFDADMIPMHDFLLKTIPFFMVEDKIGFVQVPQNFYNADPFQYNLFNESRVPNEQNLFSRLIQAGKNRFNAIIYSGSNTVLSREALNEINGLVVGTITEDFATGMKIQSKGYKCIYLNETHASGLSPESLEDLYSQRIRWGRGVIQTFKAFNPLFMRGLNIYQKLMYFSAFSYWYFGLWRLIFFMAPIVFSVFGVVVLSTSAIQMLEVWLPMFIFTNLTFYHFSKKVRSVSWTHIYDTILFPQITVGILKETFGFKMSKFKVTPKENVRRDNFTNRFELVRVQIVLAVLSFAGIVRIIYLYVTNNFEAQYIINLFWLTYNFYLLVMAIFFASERPKFRNNERMFVSEEAYVVNNEQKLYGKTIDISETGISIKLEKPICIDPNENYSIGVKTARNSAEFSGKIVRVDNFKDGHKYAFNITEIDEKNFSELILILYDRVPPSPEKQKRDYMTVNVLRNIINRKKRIVPLNRKLPRVKIDKKVKILVSKNEEGIHVVDFNYMYIAVKCVQEYDSFILPLSEKFNINLNCTYDKTLSERNRKKVSIYKVTNYDEFKDHDLLELLKAVPVYNEELNIHEKVAAVK”, for which the protein production result is “failed”.

Consider “MKRIQVSPHIYKLESWFLLKMSAWIVKEDEGVYIVDTGMPYMGKRILKEAEKLGKVKGVLLTHGHSDHVGGLKKILDIQDLPVYVHTLDIKHMEGKEPFPGRKKREYLVEPGVAKPLPVDEDGEFRCFGNLVPYHTPGHSPGHVCYYHKKDRVLIGGDLFTSKRGKLQQPIKMFTADMNEAVRSGEIVKKLQPSKVSICHGNDIDNPHTQIDEYLTHYKYERNDQQKIKNEDRTIS”, for which the protein production entry is listed as “failed”.

On to “MKRKAFLALGFLALGLGVSQVGPFRARLEAAIQTGGEAFAQVMLSQDKAQALCTQYRDKLPPELVPAFLAEQRALIKYPASGKLMGDWKNGEKVFTDPKRGNCYACHQGDPREVAYGTMGPSLTGYGQRGLSEAVVRYTYEKIYNAWAFVPCSLMYRGGVHGYFTPEETADLVAYLLSPESPINRR”, for which the protein production entry was “failed”.

As for “MKRKLLAILLSVSMIATLVTACGSKEVSDNSAKEEGVTVEDVKAALKDENAVVLDARTQDAYAGWSTENNKLGGHIESSSGFSAAWLTCEYDDEANDDNRTREERLEICMEDKGITADTKVIIYDENGKDAAAVSEYLSGKGVKDIETFNLADWDGELVKYENYQTILPPSIVKKLIDGETVEEVGEVKDLKVLEFSWGTEEESGYLEGHVPTAIHINSDDVDDENNIYVLDKDEILLETVKKAGVTVDSTVVVTGAGLFSCHLATILKYLGVEDVYIMSGGANGWTDAGYEAEKGSNTPVAVEDFGTDKPLNPDYIDDVEEVSLLLTDKNAQVIDTRAYKEFTGESSGYSYVEEAGRLNGAIFGQEDGSAQGPDCTGSSMMYYENIDGTMRDASEILEMWSNSNVDVNKHLSFYCGGGYRAAAVMWYAQAMGLEDTSLYNDGWAGWIVYGKDAVKGTYEDPQPVN”, the protein production result is reported as “failed”.

Consider “MKRKMENMKYTMSYIAKNFRVALMLSLMMLLCSCSSEDKLELHKGATLPIMQGIADNVPYIQSVEKELTYDLYDGVRITDVIFTYCAKPTRMIIAEVDLNKNVTIVTSTPDNKPEVGKILQQVTVQAEKAEAAGRKVILGTNGDFYSKKNDLWIPGGLFYKDGVAIKTEIGWEADHVFYMLKDGTAHITSVPEFKLVEREVVHAIGGWQRMVQDGEVVKNFTVNDNAMQFHPRTFVGVSADNRKVYLFVVDGRQPEYSNGMRLEDMMLLCQGAGCYQAFNMDGGGSTTMVRRVEKGSSVSFEVMNQPSDNPARSVINGLQVIEKTN”, for which the protein production result is “failed”.

For the origin of these results see a protein production outcome set (Wang et al. 2014).
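Note: failed if final PepcDB status was selected cloned or expressed and not failed if soluble or beyond.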
